The record followed here is patent US20150110776A1 (PROTHENA BIOSCIENCES, published 2015).

The chains are these.
B1: murine monoclonal antibody 3H6 (antibody, V domains shown)
VH: EVKLEESGGGLVQPGGSMKLSCVASGFTFSNYWMYWVRQSPEKGLEWVAEIRLKSDNYATHYAESVKGRFTISRDDSKSSVYLQMNSLRAEDTGIYYCTIFDYWGQGTTVTVSS
VL: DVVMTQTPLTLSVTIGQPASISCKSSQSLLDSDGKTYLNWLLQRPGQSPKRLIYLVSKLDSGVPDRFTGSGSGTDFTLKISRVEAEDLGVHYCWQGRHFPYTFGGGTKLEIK
notes: also called m3H6; mouse 3H6
B2: chimeric 3H6 antibody (antibody, V domains shown)
VH: B1 VH
VL: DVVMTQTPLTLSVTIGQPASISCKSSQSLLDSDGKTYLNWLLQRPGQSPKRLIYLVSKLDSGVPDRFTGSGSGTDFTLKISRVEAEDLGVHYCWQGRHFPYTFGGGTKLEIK
notes: also called ch3H6
B3: humanized 3H6 antibody version H2L1 (antibody, V domains shown)
VH: EVQLVESGGGLVQPGGSLKLSCAASGFTFSNYWMYWVRQAPGKGLEWVGEIRLKSDNYATHYAESVKGRFTISRDDSKNTAYLQMDSLKTEDTAVYYCTTFDYWGQGTLVTVSS
VL: DVVMTQSPLSLPVTLGQPASISCKSSQSLLDSDGKTYLNWLQQRPGQSPKRLIYLVSKLDSGVPDRFSGSGSGTDFTLKISRVEAEDVGVHYCWQGRHFPYTFGQGTKLEIK
notes: also called h3H6-H2L1
B4: humanized 3H6 antibody version H3L2 (antibody, V domains shown)
VH: B3 VH with T100I
VL: B3 VL with H91Y
notes: also called h3H6-H3L2
B5: humanized 3H6 antibody version H1L1 (antibody, V domains shown)
VH: B3 VH with A81V, T100I
VL: B3 VL
notes: it was captured on an anti-human chip; also called h3H6-H1L1
B6: humanized 3H6 antibody version H2L2 (antibody, V domains shown)
VH: B3 VH
VL: B3 VL with H91Y
notes: also called h3H6-H2L2

Where a chain is given by its changes, count along the chain named.

One assay deals with T1, human islet-amyloid polypeptide (IAPP) (human).
T1 construct: also called hIAPP; human IAPP
T1 peptide: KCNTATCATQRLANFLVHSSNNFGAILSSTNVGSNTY
Put plainly: hybridoma screen against hIAPP. The protocol: (§1) LA28-3H6 was originally a mouse hybridoma, producing an anti-hIAPP antibody of isotype Gamma 2a k, which resulted from a fusion of spleen cells from a mouse injected with hIAPP coupled to KLH via gluteraldehyde. The mouse was immunized with 25 μg of the conjugate in RIBI adjuvant on days 0, 7, 14, 21, 39, 46, 53, 60, 77, 84, and 91. […] On day 97 the mouse was injected with the IAPP/KLH conjugate both intraperitoneally and intravenously. Three days later the spleen was removed and a cell suspension was generated and frozen. Four months later the suspension was thawed and fused to SP2/0 cells. The fusion was screened against hIAPP, then epitope mapped against shorter peptides and found to react with […] (SEQ ID NO: 4), which corresponds to amino acids 27-37 of IAPP.
For the molecule B1, the binding result is on record as “binds”.

A further assay has as its target T2, rat IAPP (rat, UniProt P12969 38-74).
T2 construct: Used as the soluble analyte in the Biacore assay in place of human IAPP; also called rat islet amyloid polypeptide
T2 peptide (looked up): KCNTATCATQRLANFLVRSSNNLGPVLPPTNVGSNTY
Kind of assay: SPR (Biacore), antibody captured on anti-human CM5 chip, rat IAPP as analyte, global 1:1 fit. The protocol: The affinity of various combinations of 3H6 humanized heavy chains and humanized light chain proteins for IAPP was analyzed on a Biacore instrument. Biacore analysis was performed by preparing an anti-human CM5 chip following the protocol provided in the kit. The 3H6 antibody was captured such that the maximum binding of rat IAPP would not exceed 20-30 RU. […] Data was blank subtracted to both an irrelevant sensor not containing 3H6 and 0 IAPP concentration to account for the dissociation of 3H6 from the anti-human capture. Data was then analyzed using a global 1:1 fit.
As to B1, the Kd worked out at 18.6 nM, the koff turned out to be 0.00152 s⁻¹ and the kon was found to be 81800 M⁻¹ s⁻¹.

Take B2: the Kd worked out at 13.7 nM, the koff amounted to 0.00147 s⁻¹ and the kon was 107000 M⁻¹ s⁻¹.

With B3, the Kd amounted to 34.5 nM, the koff was determined as 0.00294 s⁻¹ and the kon was 85200 M⁻¹ s⁻¹.

On to B4, for which the dissociation constant (Kd) was 33.2 nM, the koff came out at 0.00625 s⁻¹ and the kon is 188000 M⁻¹ s⁻¹.

Regarding B5, the Kd amounted to 20.4 nM, the koff came out at 0.00231 s⁻¹ and the kon was 113000 M⁻¹ s⁻¹.

For the molecule B6, the Kd was 85.4 nM, the dissociation rate constant (koff) came to 0.00646 s⁻¹ and the kon turned out to be 75700 M⁻¹ s⁻¹.

The next assay concerns the target T3, hIAPP peptide LSSTNVGSNTY, amino acids 27-37 of IAPP (human).
T3 peptide: LSSTNVGSNTY
Kind of assay: hybridoma epitope mapping against shorter peptides. The protocol:
as §1
With B1, the binding result is listed as “binds”.
